Results from the DeepSol protein solubility set.

assay: soluble on expression in E. coli; label from the status in PepcDB or PDB records

Sequence	soluble on expression in E. coli
MSLAFPKIISVDDHTVEPPDVWRDRLPKKYQDTGPRIVRAPLKEMTFLGGKFAPVMGGPGDDGPLGDWWVYEDLHRPLTRLDTAVGYSRDEIKLEVITYEQMRPGSYDVPRRLADMDVNHVQSALCFPTFPRFCGQTFTEAKDRELGLLGVRAYNDWMVEEWCGPDAHGRLIPLTLVPLWDARLAAAEVRRNAARGVRAVAFSEIPPHLGLPSVHTDDWDPFLAACDETGTVIAMHIGSSSRMPSTSADAPPAVGSTITFANCCFSMVDWLMSGKFERFPNLRVMYAEGQIGWIPYILERADVVWEENRGWGGVADKVHRPPSELFAGHVFGCFFDDAFGLRNLDAIGIGNVLYETDYPHSDSTWPKSREVGEAQMGHLEAEVVERIVRGNAIELLGLTDDGEGHHHHHH	not soluble
GSSEEESFFVQVHDVSPEQPRTVIKAPRVSTAQDVIQQTLCKAKYSLSILSNPNPSDYVLLEEVVKDTTNKKTTTPKSSQRVLLDQECVFQAQSKWKGAGKFILKLKEQVQASREDK	soluble
MGAVVVKDLRKRIGKKEILKGISFEIEEGEIFGLIGPNGAGKTTTLRIISTLIKPSSGIVTVFGKNVVEEPHEVRKLISYLPEEAGAYRNMQGIEYLRFVAGFYASSSSEIEEMVERATEIAGLGEKIKDRVSTYSKGMVRKLLIARALMVNPRLAILDEPTSGLDVLNAREVRKILKQASQEGLTILVSSHNMLEVEFLCDRIALIHNGTIVETGTVEELKERYKAQNIEEVFEEVVKCSENF	not soluble
MGSDKIHHHHHHMASLSELAVFIAVAEQGSFVGAGRVLGVSASAVGKRISRLEVDLGVRLLQRNTRSLALTAEGETVLSRGRSLLDEAESLRVVLERSSRQPGGVLRLSLPPIGGVLMAELAAFRQRYPEVALELDYSERNVDIIEEGFDAAIRVGAGDDGKLRSLALPGFRRLIVAAPDYLVRHGQPRSAAQLAEHQLIHYRSPNSGKLEAWPLVNAELPRALVCNSVHARLDFALQGQGIACLPDISIRRELEDGSLRPLLGSENGEKVVLRLLWPSSRGLSARMEAFLGFMRERSGAAPCENFKVRA	not soluble
MKSIGTQILQTERLILRRFVESDAEAMFQNWASSAENLTYVTWDPHPDVEITRNSICNWVASYTNLNYYKWAICLKENPEQVIGDISIVKIDEADLSCEIGYVLGKAYWGNGMMTETLKAILDFCFTQAGFQKVRARYASLNPASGRVMEKAGMSYLQTIVNGVERKGYLADLIYYGISREEC	not soluble
GSMKTIKVKNKTEGSKVAFRMLEEEITFGAKTLGLATGSTPLELYKEIRESHLDFSDMVSINLDEYVGLSADDKQSYAYFMKQNLFAAKPFKKSYLPNGLAADLAKETEYYDQILAQYPIDLQILGIGRNAHIGFNEPGTAFSSQTHLVDLTPSTIAANSRFFEKAEDVPKQAISMGLASIMSAKMILLMAFGEEKAEAVAAMVKGPVTEEIPASILQTHPKVILIVDEKAGAGI	soluble
MNIYQQLVKQKLKTITPEELVSYSREYGLPITTSQAKQILHLARTNDINVFDPEERKKWVRELAKITSPDIARKANELFLKFVQKK	not soluble
MGSDKIHHHHHHMTWGFKNRLNTILPDGRAVMLAIDHGYFLGPIHGLEQPLETVKNLLPYTDSLFLTRGVLSSCIPENCSTPMVIRVSGGATVVGKDLANETIVTPVKEAVKQNAIGVGVSVFVGSDYETQTVTNLANVVSEAHDYCLPVLGITAVAKELQKREARFLALASRVCVEMGADIIKTYYCEGFEKITSTCPAPVVIAGGPKLDSIEDALNITYNALQEGAIGVDMGRNIWQSEHPAAMIQAIHGIVKNGLNVKEALQLYEDVKN	not soluble
MSLADIIIHNGSLITFDEARPQAQALAIQGGMIAAVGSDAEILALAGPETRLIDAGGGTVLPGFIDSHVHLFGGSVELDCLSLYGVKGLDAMRAAIQPYAQANPDDALVFCVMADYDILGTGHTLTRHDLDSILADRPLAMFAPDHHTVWANTAALEATGLLQGGEVDAGSLIVLGEDGLANGELLEPGAYGPILGLTRHGGREMLGLTTGKDPEPPATPDQRARDKDVIARGLAHCAAQGITGLHLMDGNRYQLELLTELEAEGRLLCRCEVPFHMKGTDPVERMTAEAPAMRAAYRGDKVRCNHLKMFIDGVIESGTALMLRPYPGELGANDNTGDEVFTQEHFTACCVEADRLGFQIAVHAIGDAGVRRTIDAFEAARRANGTRDSRHRIEHIEVIHPDDIPRLAELDIVASLQPGHAPRGHVFPPGAVGQYLHPDQIVGAYAWQTIRETGARVVFSTDWPVIPVDVMPSLRAAIAPLDLGPDWPDQSQSLMDTLASYTRDNAWVEFNEDSKGRLKVGMAADIAVLSHDLTALAPDDITQAAAMVTIMDGAVTYQREGHHHHHH	soluble
MGSDKIHHHHHHMEATTNNMKDVTGAELLICTIGHSTHPLEEFINLLKKNEVTHLLDVRTVPRSRHNPQFNKETLPDALGAIGIKYTHLSGLGGLRHARKDSINEGWRNASFRGYADYMQTQEFVENVNRVIELAAHDRCALMCAEAVPWRCHRSLIADALVVRGVRVEDIIDNHGRKPHSLTPWAQAEGVRIFYPAQQGRLI	not soluble
DKSPSSLTLALGKNIAGRPTVADLARMPHLLVAGTTGSGKSVAVNAMVLSLLFKASHNDLRMLMIDPKMLELSVYQGIPHLLAPVVTDMKEAANGLRWCVAEMERRYKLMSAVGVRNLAGFNKKVKDAEEAGQPLMDPLFKPNPDLSEVPRPLQKLPFIVIFIDEFADMMMIVGKKVEELIARLAQKARAAGIHLILATQRPSV	not soluble
MSQEALKAPVVVLGAGLASVSFVAELRQAGYQGLITVVGDEAERPYDRPPLSKDFMAHGDAEKIRLDCKRAPEVEWLLGVTAQSFDPQAHTVALSDGRTLPYGTLVLATGAAPRALPTLQGATMPVHTLRTLEDARRIQAGLRPQSRLLIVGGGVIGLELAATARTAGVHVSLVETQPRLMSRAAPATLADFVARYHAAQGVDLRFERSVTGSVDGVVLLDDGTRIAADMVVVGIGVLANDALARAAGLACDDGIFVDAYGRTTCPDVYALGDVTRQRNPLSGRFERIETWSNAQNQGIAVARHLVDPTAPGYAELPWYWSDQGALRIQVAGLASGDEEIVRGEVSLDAPKFTLIELQKGRIVGATCVNNARDFAPLRRLLAVGAKPDRAALADPATDLRKLAAAVAA	soluble
AEVPLPQLRAYTVDASWLQPMAPLQIADHTWQIGTEDLTALLVQTPDGAVLLDGGMPQMASHLLDNMKARGVTPRDLRLILLSHAHADHAGPVAELKRRTGAKVAANAESAVLLARGGSDDLHFGDGITYPPANADRIVMDGEVITVGGIVFTAHFMAGHTPGSTAWTWTDTRNGKPVRIAYADSLSAPGYQLQGNPRYPHLIEDYRRSFATVRALPCDVLLTPHPGASNWDYAAGARAGAKALTCKAYADAAEQKFDGQLAKETAGAR	soluble
MGSDKIHHHHHHMMTLTVEYYFTHPQDKLGMYASDPEDNSQEHGHEFAELVIVEEGHGLHVINGRPLYIQQGDVFYVQPGDVHYYDELGTLKLINVLINPAVAFGYLQQMEGLLQQLSAQRAACYGWLAPETRSYCRELVEKIFSPALRAADNTPLRESLFFQLVTTILTAESEAEYSSTRYKLHKLLTWLQEHCFEEHNWQQLAEQFHLTTRTAFRHIKEATGLTPDNYLKRLRLVSARVKLRETEMTITEVAYLCGFANSNHFTTLYKKVFGLTPSADRRRPPG	not soluble
MGSDKIHHHHHHMSLAVVYSRASMGVQAPLVTIEVHLSNGKPAFTLVGLPEKTVTEAQGRVRSALLNAQFKYPAKRITVNLAPADLPKEGGRFDLPIALGILAASEQINAKKLQQFEFVAELALTGELRGVHGVIPAILAGQKSKRQLIVAQQNANEASLVSQHETFFARNLLEVVQFLNDDSSLPSSTTLCMQSAVDFSPQSNKDLTDIIGQQHAKRALMIAAAGQHNLLFLGPPGTGKTMLASRLTGLLPDMTDQEAIETASVTSLVQNELNFQNWKQRPFRAPHHSASSPALVGGGTIPKPGEISLAHNGVLFLDELPEFERRVLDALRQPLESGEIIISRANAKIQFPARFQLVAAMNPSPTGHYTGIHNRTSPQQVLRYLNRLSGPFLDRFDLSIEVPLLPQGALQNTEDRGETTAQVKEKVLRVREIQLARAGKVNAYLTGKEIERDCKLTEQDALFLENTLTRLGLSVRAYHRILKVARTIADLNGDSDIKQNHLAEALSYRAMDRLLRKLSDQ	not soluble
QMFWPLQPVQLSLANVFLALANYLDAKAKLFHPVTNLAPQPMRIEAARLNAATVTALNACKATLLTRSKRGHVDGPSDRFLNIYFIAQDIHERVSSSHYRYQDLATEFERSDVLFRFKYLLETQAQACRDIAQAIQLGNEYTHTDESILALAELQNSLAYLEEQQQGHWKRLLMQLTYLFNNLATVEKQLNNINNPDAERLEEDTLADTNPHTLKAMWQRISANLHKDSMLFRH	not soluble
MGKRVLIVDDAAFMRMMLKDIITKAGYEVAGEATNGREAVEKYKELKPDIVTMDITMPEMNGIDAIKEIMKIDPNAKIIVCSAMGQQAMVIEAIKAGAKDFIVKPFQPSRVVEALNKVSK	soluble
MLIEPRDPLIVRDGRPFTNSPGARAKSLPFPLPQTLAGAYRTRRALLEGLPLPERAEEVLRWGLRGPLLAEEGEGGWRLLAPRPLDALKLGEALYPLRPLELPQGAGTNLPEGLSPVGLPSPALKEKPAPLPAFWYWESFLEWLLQDAPAGFAPRGHEGPVPETRTHVALDPAAQTAREGFLFQTSGLEFVRGRRRLALVLWPEGPEPEGVFPLGGERRLAFWQKGGPGVPPLPEEVVAGLLRHRAARLVFLTPAFLGEAYLPKGRAFQGASVVAAVVGRPLAVSGWNLKEGKPKPSRRAVPAGSVYFVRLPEAWGEGEVRDWAEKVWFQNLSEEEQDRRDGFGLAALGLWDGKLRRWEEA	soluble
PSEIFYQAKVREQKERHARYHDTTYNLEPDIKSTPGGLRDIHTLSWVARRHFGATSLYEMSRFGFLTDAEYRELVECQDFLWRVRFALHIELKRYDNRLTFAHQVQVARHLGYFGEGNRGIEMMMKEFFRTLRRVAELNKMLLKIFDKAILNNGEEAEAVIIDDDFQRRGNMIEARKPALFQARPETILDMFLHMASDSTIESVAPATMRQLRTARRRLN	not soluble
MNKIFIYAGVRNHNSKTLEYTKRLSSIISSRNNVDISFRTPFNSELEISNSDSEELFKKGIDRQSNADDGGVIKKELLESDIIIISSPVYLQNVSVDTKNFIERIGGWSHLFRLAGKFVVTLDVAESNGSDNVSEYLRDIFSYMGGQILHQVSITNSLKDIAEAQLMEATYKIEDVLEGKIKYKTTDYQERAYQTLKLILENYDSEHFEKMYWEKKRLFEANSLEEWYYVENIKLEHHHHHH	soluble
MSEQKQDVAATEEQQPVLQIQRIYVKDVSFEAPNLPHIFQQEWKPKLGFDLSTETTQVGDDLYEVVLNISVETTLEDSGDVAFICEVKQAGVFTISGLEDVQMAHCLTSQCPNMLFPYARELVSNLVNRGTFPALNLSPVNFDALFVEYMNRQQAENAEEKSEEEQTKH	soluble
HGDGPGNAVQEIMIPASKAGLVIGKGGETIKQLQERAGVKMVMIQDGPQNTGADKPLRITGDPYKVQQAKEMVLELIRDQG	soluble
MEDLQLQVTMRDFLDALTEVEPSATREFAMEIPTATWEDIGGLEKIKERLQAMVEWPLRYPELFQQFGLQTPKGILLSGPPGTGKTLVAKALARESGINFIPVNSSLLFSHWWGEAEKTLHEVFRKARQASPCLLFFDELDALVPARKAGEGSSIGSRLVSQFLMELDGLEELREVIVLGATNRIDMIDPAVLRPGRFDQILEFPYPDQAARKEIFQIYLRNRPVDPGINLDSLAGAAEGLVGSEIEALCKRAALLAVSEVINHKGAGAYIKTCHLEQALAEIQAEKQQARTGAENHTLRPVWNNVVPGAISQVGRLEHHHHHH	soluble
